Series [1] has as its target His98 (UniProt position 99, SEKFSHEQEVK). The conditions noted are these: apo chicken liver BABP; cited from earlier work.
For series [2], the target named is His52 (UniProt position 53, FTWSQHYSGGH). Kind of series: NMR. The conditions noted are these: 283 K (10 °C), 50 mM KCl plus 20 mM potassium phosphate, folded, 0.5 mM protein.
The target in series [3] is His57 (UniProt position 58, HYSGGHTMTNK). Kind of series: NMR. The conditions noted are these: 283 K (10 °C), 50 mM KCl plus 20 mM potassium phosphate, folded, 0.5 mM protein.
The target in series [4] is His98 (UniProt position 99, NFPNYHQTSEI). Kind of series: NMR. The conditions noted are these: 283 K (10 °C), 50 mM KCl plus 20 mM potassium phosphate, folded, 0.5 mM protein.
[5] abbreviates: 0.05% NaN3, holo: doubly ligated I-BABP:GCDA:GCA = 1.0:1.5:1.5 complex.

Where “and” joins values, the source holds several entries; their conditions need not be identical. Equal entries are not always repeated.

For “Liver bile acid-binding protein (cL-BABP, liver basic fatty acid-binding protein) (Gallus gallus)”, the pKa (usually the pH at which an ionisable group is half protonated) in series [1] was 4.7.

Consider “Ileal bile acid-binding protein (I-BABP, gastrotropin, FABP6) (Homo sapiens)”, for which the pKa in series [2] (0.05% NaN3, apo (ligand-free)) was 6.7; in series [2] (setting [5]), 6.6 and 6.5 and 6.8; in series [3] (0.05% NaN3, apo (ligand-free)), 6.4; in series [3] (setting [5]) it was 7.9; in series [4] (0.05% NaN3, apo (ligand-free)) it was 6.6 and 6.7 and 6.8; in series [4] (setting [5]) it was 7.0 and 7.2.

Source of the values: publication PMC6423008.
